In PMC9907207:

Target: D614G VFLIP spike trimer (SARS-CoV-2)
Test: cryo-EM structure

Substance “D614G VFLIP spike trimer (natural protein)” has a stoichiometry N of 3.
